Read-outs that look alike come from different tables or passages of the source.
T1: Native human IL-18 (human, UniProt Q14116 37-193)
T1 sequence: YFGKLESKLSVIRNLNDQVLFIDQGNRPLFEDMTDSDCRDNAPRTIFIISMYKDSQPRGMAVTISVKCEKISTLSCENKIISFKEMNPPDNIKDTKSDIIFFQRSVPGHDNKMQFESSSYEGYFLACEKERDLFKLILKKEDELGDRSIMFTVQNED

T2: Recombinant human IL-18 (human, UniProt Q14116 37-193)
T2 sequence: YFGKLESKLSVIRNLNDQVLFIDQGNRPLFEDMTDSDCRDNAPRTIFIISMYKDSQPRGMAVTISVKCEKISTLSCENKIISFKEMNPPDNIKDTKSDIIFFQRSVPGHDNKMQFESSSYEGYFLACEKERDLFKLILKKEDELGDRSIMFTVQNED

T3: Recombinant cynomolgus IL-18 (cynomolgus monkey, UniProt Q14116 37-193 (human entry))
T3 chain: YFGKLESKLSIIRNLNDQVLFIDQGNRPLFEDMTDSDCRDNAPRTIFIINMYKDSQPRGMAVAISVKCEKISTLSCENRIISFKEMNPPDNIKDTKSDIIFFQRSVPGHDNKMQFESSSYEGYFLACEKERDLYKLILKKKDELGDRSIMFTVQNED


Experiments:
Assay in all cases: cell-based or functional assay
Native human IL-18 [1] = target: T1, Native human IL-18
Recombinant human IL-18 [2] = target: T2, Recombinant human IL-18
Native human IL-18 [3] = target: T1, Native human IL-18; remark: listed apart in the source
Recombinant human IL-18 [4] = target: T2, Recombinant human IL-18; remark: listed apart in the source
[5] = target: T3, Recombinant cynomolgus IL-18
Native human IL-18 [6] = target: T1, Native human IL-18; remark: listed apart in the source
Recombinant human IL-18 [7] = target: T2, Recombinant human IL-18; remark: listed apart in the source

Binder | IC50, inhibition of IFN-γ release, human whole blood, LPS/IL-12 (native IL-18) (Native human IL-18 [1]) | IC50, inhibition of IFN-γ release, human whole blood, recombinant human IL-18 (7 nM) (Recombinant human IL-18 [2]) | IC50, inhibition of IFN-γ release, PBMC, Native IL-18 (LPS/IL-12) (Native human IL-18 [3]) | IC50, inhibition of IFN-γ release, KG-1 cells, Hu IL-18 (1 nM) (Recombinant human IL-18 [4]) | IC50, inhibition of IFN-γ release, PBMC, Hu IL-18 (recombinant) (Recombinant human IL-18 [4]) | IC50, inhibition of IFN-γ release, KG-1 cells, Cyno IL-18 [5] | IC50, inhibition of IFN-γ release, PBMC, Native IL-18 (LPS/IL-12) (Native human IL-18 [6]) | IC50, inhibition of IFN-γ release, KG-1 cells, Hu IL-18 (1 nM) (Recombinant human IL-18 [7])
MOR9464_N30H (antibody, human IgG1, lambda, L234A L235A, V domains shown) VH: EVQLVQSGAEVKKPGSSVKVSCKASGGTFHSYAISWVRQAPGQGLEWMGNIIPMTGQTYYAQKFQGRVTITADESTSTAYMELSSLRSEDTAVYYCARAAYHPLVFDNWGQGTLVTVSS VL: DIVLTQPPSVSGAPGQRVTISCSGSSSNIGNHYVNWYQQLPGTAPKLLIYRNNHRPSGVPDRFSGSKSGTSASLAITGLQSEDEADYYCQSWDYSGFSTVFGGGTKLTVLG | 23 nM | 11.9 nM | – | – | – | – | 0.1 nM | 0.23 nM
MOR9464_N30T (antibody, human IgG1, lambda, L234A L235A, V domains shown) VH: EVQLVQSGAEVKKPGSSVKVSCKASGGTFTSYAISWVRQAPGQGLEWMGNIIPMTGQTYYAQKFQGRVTITADESTSTAYMELSSLRSEDTAVYYCARAAYHPLVFDNWGQGTLVTVSS VL: DIVLTQPPSVSGAPGQRVTISCSGSSSNIGNHYVNWYQQLPGTAPKLLIYRNNHRPSGVPDRFSGSKSGTSASLAITGLQSEDEADYYCQSWDYSGFSTVFGGGTKLTVLG | 20.8 nM | 12.5 nM | – | – | – | – | 0.19 nM | 0.31 nM
MOR10222 (antibody, human IgG1, lambda, L234A L235A, V domains shown) VH: EVQLVQSGAEVKKPGSSVKVSCKASGGTFNSYAISWVRQAPGQGLEWMGNIIPMTGQTYYAQKFQGRVTITADESTSTAYMELSSLRSEDTAVYYCARAAYHPLVFDNWGQGTLVTVSS VL: QSVLTQPPSASGTPGQRVTISCSGSSSNIGNHYVNWYQQLPGTAPKLLIYRNNHRPSGVPDRFSGSKSGTSASLAISGLQSEDEADYYCQSWDYSGFSTVFGGGTKLTVLG | 21.6 nM | 4.7 nM | 0.22 nM | 0.7 nM | 2.3 nM | 6.6 nM | – | –

Results, then the binder that gave them:

IC50, inhibition of IFN-γ release, human whole blood, LPS/IL-12 (native IL-18) (Native human IL-18 [1]) | IC50, inhibition of IFN-γ release, human whole blood, recombinant human IL-18 (7 nM) (Recombinant human IL-18 [2]) | IC50, inhibition of IFN-γ release, PBMC, Native IL-18 (LPS/IL-12) (Native human IL-18 [3]) | IC50, inhibition of IFN-γ release, KG-1 cells, Hu IL-18 (1 nM) (Recombinant human IL-18 [4]) | IC50, inhibition of IFN-γ release, PBMC, Hu IL-18 (recombinant) (Recombinant human IL-18 [4]) | IC50, inhibition of IFN-γ release, KG-1 cells, Cyno IL-18 [5] | IC50, inhibition of IFN-γ release, PBMC, Native IL-18 (LPS/IL-12) (Native human IL-18 [6]) | IC50, inhibition of IFN-γ release, KG-1 cells, Hu IL-18 (1 nM) (Recombinant human IL-18 [7]) | Binder
16.7 nM | 5.6 nM | 0.3 nM | 0.8 nM | 1.9 nM | 9.8 nM | – | – | MOR10579 (antibody, human IgG1, lambda, L234A L235A, V domains shown) VH: EVQLVQSGAEVKKPGSSVKVSCKASGGTFNSYAISWVRQAPGQGLEWMGWINPFYIGETFYAQKFQGRVTITADESTSTAYMELSSLRSEDTAVYYCARAAYHPLVFDNWGQGTLVTVSS VL: QSVLTQPPSASGTPGQRVTISCSGSSSNIGNHYVNWYQQLPGTAPKLLIYRNNHRPSGVPDRFSGSKSGTSASLAISGLQSEDEADYYCQSWDYSGFSTVFGGGTKLTVLG
18.8 nM | 34.3 nM | – | – | – | – | 0.09 nM | 4.8 nM | MOR10222_E1Q_N30S_M54Y (antibody, human IgG1, lambda, L234A L235A, V domains shown) VH: QVQLVQSGAEVKKPGSSVKVSCKASGGTFSSYAISWVRQAPGQGLEWMGNIIPYTGQTYYAQKFQGRVTITADESTSTAYMELSSLRSEDTAVYYCARAAYHPLVFDNWGQGTLVTVSS VL: QSVLTQPPSASGTPGQRVTISCSGSSSNIGNHYVNWYQQLPGTAPKLLIYRNNHRPSGVPDRFSGSKSGTSASLAISGLQSEDEADYYCQSWDYSGFSTVFGGGTKLTVLG

— patent publication US20140112915A1 (Novartis, published 2014)
